Experimental data as given in the supplement of paper PMC12042874.
± gives the uncertainty stated by the source.

test: amyloid nucleation score (Sup35N fusion, yeast selection) (log enrichment); library NNK3; higher = more nucleation; inactive = no reads after selection
Procedure, shortened: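 Using DiMSum, nucleation scores were taken as the log enrichment of output over input reads, centred on the mode score of non-aggregating sequences. The input and output reads came from Illumina sequencing of plasmid inserts, with sequences under 100 input reads excluded. The yeast were psi-negative, expressed Sup35N fused to peptides of 20 random codons, were induced with 100 μM copper sulfate for 24 hours, and were grown 7 days at 30°C on medium lacking adenine and uracil.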

Substance	amyloid nucleation score
FRYPIYGFFGMTGPTNSLTA	inactive
GILCCAL	inactive
MGPRQKCALIATRKCQSVYL	-0.334 ± 1.1
VEDWATILSYY	inactive
EFVVCTQCRVCDLIAFLGRN	2.84 ± 0.065
VVATTLEFMWRHMGTYFWGI	inactive
FAIFGSWPKFFSCTP	0.378 ± 0.41
MSESTITLPWIAGIAWDEKL	inactive
ILYSSYS	inactive
LVSVGSDWDCLHFISGKFPG	inactive
RGPFGLYSLDILLVSQVFRR	0.502 ± 0.23
GCRNVVCVVDGFSVM	inactive
QVFSN	inactive
DFHVLRYVLFRWMWIIWRKG	inactive
DTDWGRMWQGGSVYGYAFCA	inactive
GFRYALHSLIDR	inactive
NNFKGFFRRFTVGCSRTPPT	inactive
LVVCKLRV	inactive
PNRLTPFQRSTSSHLQNVGQ	inactive
SQWWNVDPRSTQCASGAMRC	inactive
GVFCSVINLIDATVVN	inactive
VRTVFCNIFFEFRGGSRNWA	1.79 ± 0.11
SVYFFQGTL	1.29 ± 0.084
YAFIL	inactive
RASMYG	inactive
VQGTTVDMDYYFTVSCLHAK	inactive
SSRVVAWLSFNGSIICLFTF	inactive

Substance	amyloid nucleation score
FTPDVRWLNVLNSHNGVIEV	inactive
IVRWGSQSGVYRMPIEAWKW	inactive
RSNLIILSAHYRLYMDLRCA	inactive
ETVGAPRSLYYST	inactive
HGSYLMRILR	inactive
IFACVLHVVTW	inactive
PLPYANKNNCFGNSSLRATI	inactive
MMGKRDALVFN	inactive
NYYFT	inactive
SERYEEMTFSDGYMFSRDDL	inactive
VRVILNAGLKNGRKVLNLGR	inactive
PFTACWVSVADNPYPSNKTG	inactive
IPFRLFQNDSEKMSWSCDVT	inactive
NTSYSRMVCSKG	inactive
SWTSVSFRRMLMDSSR	inactive
IRSDTVSTARPGNLTNC	inactive
IGVIWRFVLWSGPRTDSQVS	inactive
LTINDLCGFVKWLRTNCNVS	inactive
VCSFDMRDLQKTE	inactive
FSFPCRTVAWFWYDFHFIGL	inactive
FRITNWLSLYDKTEISHASI	inactive
RNTGKAVHFCNRVYDSSMSM	-0.1 ± 0.6
RWKLFWIHDR	1.16 ± 0.14
NYMYGLRGSRLQFGMFRFGG	inactive
PKSYVNTVKVMVVNSQVQLQ	0.836 ± 0.2
LASLTRLLDFMMSVENTYSA	inactive
SLNLWGLRSKVPDVWRMLMR	inactive

Substance	amyloid nucleation score
YMPFYDSCVRHAYRSSFR	0.038 ± 0.43
PSSSDGSMHLYIILQTLLFF	1.49 ± 0.11
GNFESVSDRKFSISFHCWHS	inactive
SSIDEIGSFV	inactive
LYPVTKR	inactive
TFLVALSYFVSLGYGSSQSM	inactive
AEWGFVGGIYWYLRKVPRSH	inactive
RMAIISSRIWFGFLAMQFVF	inactive
ILIGPSGFMYLDVSFFQFQR	0.856 ± 0.25
WCFCFMCSFMTKFFHYLGS	inactive
TVSIKSAHATRTQVVPNMSF	inactive
CGYCVFPFLNGITVGGRFGH	1.29 ± 0.11
SLTYGRRWLFDWRSTMKGKA	inactive
TPTWFLRWWFTVSINNMVIW	inactive
FQARTPACPYVCSS	inactive
KFLYGGFCGWMSAVLNVLYP	-0.364 ± 0.82
DVARPCSI	inactive
NETPVSDAESGVLDFTSHEL	inactive
KQKMYTAVPKGIQNILEA	inactive
FLLSCK	inactive
SSYVQFYLGWLGRYCNGSYV	inactive
SVNFELYDMITRC	inactive
IHCSDVGALRMYVPSTGPFS	-0.213 ± 0.64
RTSLYICINKRTLSHRLFPC	inactive
CVVTGMMYTVFDKAFCFNAS	1.89 ± 0.11
